Test results taken from the nanobody polyreactivity screen of Harvey et al. (2022).

Assay: yeast display, Sf9 membrane polyspecificity reagent, FACS + sequencing; frameworks hold sequencing errors
Procedure, shortened: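 A nanobody's polyreactivity label depends on the gate it was sorted from. Yeast display cells were stained with 10% biotinylated, detergent-solubilized Sf9 membrane reagent for 1 hour at 4 °C, enriched on streptavidin microbeads and sorted by FACS. The low and high (top ~1%) gates were set on anti-HA fluorescence for expression and streptavidin fluorescence for reagent binding.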
With “QDQLVDSGGGLVQAGGSLRLSCAASGNIFTFNAMGWYRQAPGKERELVAAISRGGRTNYADSVKGRFTISRDNAKNTVYLQMNSLKPEDTAVYYCAAEFPQRASGGRYKTEYDYWRQGTQVTVSS” the “polyreactivity (PSR sort gate)” value was “low polyreactivity”.
In the case of “QDQLVDSGGGLVQAGGSLRLSCAASGYTFWDYAMGWYRQAPGKEREFVAGISFSDGGTYYADSVKGRFTISRDNAKNTVYLQMNSLKPEDTAVYYCAATYPYSWVYSGYYYWGQGTQVTVSS”, the “polyreactivity (PSR sort gate)” value is reported as “low polyreactivity”.
With “QDQLVDSGGGLVQAGGSLRLSCAPSGSTIYPNAKGWTRQAPGKERELVAGISSGGGTYYADSVKGRFTISRDNAKNTVYLQMNSLKPEDTAVYYCNAYFLSSCLDYLGQGTQVTVSS” the “polyreactivity (PSR sort gate)” value was “low polyreactivity”.
For “QDQLVEAGGGVVQAGGSLRLSCAASVIIIDYYAMAWYRQAPAKERELDAAITSGGSTSYADSVKGRFTISRDNAKNTVYLQMNSLKPEDTAVYYCNNEPSGYQSAYWGQGTQVTVSS”, the “polyreactivity (PSR sort gate)” value was “low polyreactivity”.
For “QDQLVESAGGLVQAGGSLRLICAATGSNFNRYAMGWYRQAAGKEREFVAAITRRGGNTYYADSVKGRFTISRDHPKNTVYLQMNSLKPVDTAVYYCAAPFYFPAGLLYYENNYWGHGTQVTVSS”, the “polyreactivity (PSR sort gate)” value was “high polyreactivity”.
For “QDQLVESAGGLVQAGGSLRLSCAASGNTFSTNPLGSYRQAAGKERELVATISRNGGSTSYAVSVKGRFTISRDNAKNSDYLKMYSLKAEDTAVYYCAARSVRPGPFSDDYWGQGTQVTVSS”, the “polyreactivity (PSR sort gate)” value was “low polyreactivity”.
In the case of “QDQLVESAGGLVQAGGSLRLSCAASGSNFYHYAMGWYRQAHGKERELVAAISQSGGGTYYADSVKGRFTISRDNAKNTVYLQMNSLKPEDTAVYYFAAKGRHNYYYWGQGTLVTVSS”, the “polyreactivity (PSR sort gate)” value is reported as “high polyreactivity”.
For “QDQLVESCGGLVQAGGSLRISCAASGRIFLPTAMGGYRQAPGKERELVAAINSSDASTDFADSVQGRFTISRDHAKTTVYLQRNSLKPEDTAVYYCAAENDTSDAVRYDYWGQGTQVTVSS”, the “polyreactivity (PSR sort gate)” value was “low polyreactivity”.
In the case of “QDQLVESCGGLVQAGGSLRLICAAYGRIISINAMGWYRQAPVKERELVATISWRGGSTYYADSVKGRFTISRDNAKNTVYLQMNSLKPEDTAVYYCKKVFSERWARYFRYDYWVQGTQVTVSS”, the “polyreactivity (PSR sort gate)” value is reported as “high polyreactivity”.
With “QDQLVESGAGLVQAGGSLRLSCAASGRTFAYNAMGWYRQAPGKERELVASITSGGSTNYADSVKGRFTISRDNAKNTVYLQMNCLKPEDTAVYYCNKDGKYHRVLYDYWGQGTQVTVSS” the “polyreactivity (PSR sort gate)” value was “low polyreactivity”.
For “QDQLVESGGCLVQAGGSHRLSSAASGIIIWYNTMGRYRQAPGKEREFFARISRRVGSTYYADSVKGRFTISRDNAKNTVYLQMNSLKPEDTAVYYCNRTRYRSFHYDYWGQGTKVTVSS”, the “polyreactivity (PSR sort gate)” value was “high polyreactivity”.
In the case of “QDQLVESGGCLVQAGGSLRLSCAASGNIFDTYVMGWYRQAPGKEMELVAAITSDGGTYYADSVKARFTISRDNAKNTVYLQMNSLKPEDTAVYYCAADTYYYPIHDYWGQGTQVTVSS”, the “polyreactivity (PSR sort gate)” value is reported as “low polyreactivity”.
For “QDQLVESGGCLVQAGGSLRLSCAASGSISDSKAMGWYRQAPGKERELVAAISNGGSTNYADSVKGRFTISRDNAKNTVYLQMNSLKPEDTAVYYCARDYDIQNHEYDYWGQGTQVTVSS”, the “polyreactivity (PSR sort gate)” value was “low polyreactivity”.
In the case of “QDQLVESGGGIVQEGGSLRLSCAASGLIFRVYAMGWYRQAPGKEWELVATITRGGRTYYADSVKGRFTISRDNAKNTVYLQMNSLKPEDTAVSYCAVLSVRRSYNYWGQGTQVTVSS”, the “polyreactivity (PSR sort gate)” value is reported as “high polyreactivity”.
In the case of “QDQLVESGGGLDQAGGSLRLSCAASGRIFQKYAMACYRQAPGKERELVAAISSGDSTYADSVKGRFTISRDNAKNTVYLQMNSLKPEDTAVYYCAADSHYQEDFRIQYDYWGQGTQVTVSS”, the “polyreactivity (PSR sort gate)” value is reported as “low polyreactivity”.
In the case of “QDQLVESGGGLFQAGGSLSLSCAASGNTFYWNAMGWYRQATGKEREFVAAISTTGVSTYYADSVKGRFTISRDNSKNTVYLQMNSLKPEDTAVYYCASEIIGYHTIYDYWGQGTQVTVSS”, the “polyreactivity (PSR sort gate)” value is reported as “low polyreactivity”.
For “QDQLVESGGGLGQAGGSLRLSCAASGSNFRPNAMGWYRQAPGKEMELVASITRNGGSTYYADSVKGRFTISRDNAKNTVYLQMNSLKPEDTAVYYCNAGYYYWGQGTQVTLSS”, the “polyreactivity (PSR sort gate)” value was “high polyreactivity”.
For “QDQLVESGGGLLQAGGSLRLICAASGYTLQGYAMGSSRQATGKERELVAAISSNGGSTYYADSVKGRFTISRDNAKNTVYLEMNSLKPEDTAVYYCNAQYIVYYRYARITKYDYWGQGTQVTVSS”, the “polyreactivity (PSR sort gate)” value was “high polyreactivity”.
For “QDQLVESGGGLVEAGGSLRLSCAASGRTFWLNAMGWYRQAPGKERELVATISSSSGSTTYADSVKGRFTSSRDNAKNTVYIQMNSLKPEDTAVYYCNVDDPFYSGVVEFDYWGQGTQVTVSS”, the “polyreactivity (PSR sort gate)” value was “low polyreactivity”.
With “QDQLVESGGGLVHAGGSLRLSCAASVSIFVRNAMGWYRQAPGKERELVAADSVKGRFTISRDNAKNTVYLQMNSLKPEDTAVYYCNKDYIIRRGPIVYYGFDYWGQGTQVTVSS” the “polyreactivity (PSR sort gate)” value was “low polyreactivity”.
In the case of “QDQLVESGGGLVHAGGSLRLSSAASGLTFSYYAMGWYRQAPGKERELVAAIDYSGGTTYADSVKGRFTISRDNAKNTVYLQMNSLKPEDTAVYYCADAPDGWFASGDEYWGHGTQVTVSS”, the “polyreactivity (PSR sort gate)” value is reported as “high polyreactivity”.
With “QDQLVESGGGLVKAGGSLRLSCAASGGTFYYYAMGWYRQAPGKERELVAANTRSGGNAYYADSVKARFTISRDNAKNTVYLLLHSLKPEDTAVYYCAAPFVNFVGSLVYAGYDSCGQGTQVTVSS” the “polyreactivity (PSR sort gate)” value was “low polyreactivity”.
In the case of “QDQLVESGGGLVQAGCSLRFTCAACGRIFHYYAMGWYRQAPGKERELVAAITSSRGSTYYADSVKGRFTISRDNAKKTGYVQMNSLQPEDTAVYYCAAGLIVGRFVRYDYWGQGTHVTVSS”, the “polyreactivity (PSR sort gate)” value is reported as “high polyreactivity”.
In the case of “QDQLVESGGGLVQAGGCLRLSCAASGSIFYIYGRGWYRQEPGKERELVAAISRSGGRTYYADSVKGRFTISRDTANNTVYLQMNSLKPEDTAVYYCAARDHYSTGGMNYWGQGTQVTVSS”, the “polyreactivity (PSR sort gate)” value is reported as “high polyreactivity”.
For “QDQLVESGGGLVQAGGRLRLSSAASVSTFLPNTLGWYSQAHGKERELVADISWSGGSTYYADSVKGRLTISRDNAKNTVYLQMNRLKPEDTADSYCAADIASGYYWYDYWGQGTQVTVTS”, the “polyreactivity (PSR sort gate)” value was “low polyreactivity”.
In the case of “QDQLVESGGGLVQAGGSLGLSCAASGIIFYGYAMRWYRPAPGKERELVAAISRSGGSTYYADSVKGRFTISRDNAMNTVYLQMNSLKPEDTAVYYCAASGVTYDYWGQGTQVTVSS”, the “polyreactivity (PSR sort gate)” value is reported as “high polyreactivity”.
For “QDQLVESGGGLVQAGGSLPLSCAASGRTISAYAMGWYRQAPGKERELVAAISRRGGSTYYADSVKGRFSISRDNAKNTVYLQLNSLKPEETAVYYCAADVYKQYGYYYWGEGTQVTVSS”, the “polyreactivity (PSR sort gate)” value was “high polyreactivity”.
For “QDQLVESGGGLVQAGGSLRISCAASGITFRYYAMGWYRQAPGKERELVAAITSGGRTYYADSVKGRFTISRDNAKNRVYLQMISLKPEDTAVYYGNAVTFSFYLYAWGQGTQVTVSS”, the “polyreactivity (PSR sort gate)” value was “high polyreactivity”.
For “QDQLVESGGGLVQAGGSLRLICAASGRTFWAYAMGWYRQAPGKERELVAAISVSGGRTYYADSVKGRFTISRDNAKNTVYLQMNSLKPEDTAVYYCNKRYLKSYEYYWGQGTHVTVSS”, the “polyreactivity (PSR sort gate)” value was “high polyreactivity”.
For “QDQLVESGGGLVQAGGSLRLICAASGSNLNNYAMGWSRQAPGKERELVAAISSSGGTNYADSVKGRFTISRDNAKNTVYLQMNSLKPEDTAVYYCNADVLEGGYDYWGQGPQVTVSS”, the “polyreactivity (PSR sort gate)” value was “low polyreactivity”.
In the case of “QDQLVESGGGLVQAGGSLRLSCAASAFTLSPNSMGWDRQAPGKEREFVAAISQRGGSTYYADSVKGRFTISRDNAKNTVYLQMNSLKPEDSAVYYCARDTKYKYDYWGQGTQVTVSS”, the “polyreactivity (PSR sort gate)” value is reported as “low polyreactivity”.
In the case of “QDQLVESGGGLVQAGGSLRLSCAASARIFERYAKGWYRPPPGKEMELVAAISYRGGRTYYADSVKGRFTISRVNAKNTVYLQMNSLKPEDTAVYYCAAYTYFRDWAEYDYWGQGTQVTVSS”, the “polyreactivity (PSR sort gate)” value is reported as “high polyreactivity”.
For “QDQLVESGGGLVQAGGSLRLSCAASGFIFFYYAMGRYRQAPGKERELVAAISSSGGSTYYADSVKGRFTISRDNAKNTVYLQMNSLKPEDTAVYYCAAQYNVPRDKYYYWGQGTQVTVSS”, the “polyreactivity (PSR sort gate)” value was “high polyreactivity”.
With “QDQLVESGGGLVQAGGSLRLSCAASGFIFGGYAMGWYRQAPGKERELVAAISSSGGSTYYADSVKGRFTISRDNAKNTVYLQMNSLKPEDTAVYYCAKVGWSRRYYYWGQGTQVTVSS” the “polyreactivity (PSR sort gate)” value was “high polyreactivity”.
With “QDQLVESGGGLVQAGGSLRLSCAASGFIFGYYAMGWYRQAPGKERDLFAAINKNGGSTYYADSVKGRFTISRDNAKNTFYLQRNSLIPEDTAVYYCASRARGYAWTYDYWGQGTQVTVSS” the “polyreactivity (PSR sort gate)” value was “high polyreactivity”.
With “QDQLVESGGGLVQAGGSLRLSCAASGFIFIPNAMGWYRQAPRKERELVAAISFSDGTTYYADSVKGRFTISRDYEKNTVYLQMNSLKPEDTAVYYCAAEGYQSQYDYWGQGTQVTVSS” the “polyreactivity (PSR sort gate)” value was “high polyreactivity”.
For “QDQLVESGGGLVQAGGSLRLSCAASGFIFYSNAMGWYRQEPGKERELVAAITSGGGSTYYADSVKGRFTISRDTAKNTVYLQMNSLKPEDTAVDYCAVSIGRYPYRYGYWGQGTQVTVSS”, the “polyreactivity (PSR sort gate)” value was “high polyreactivity”.
With “QDQLVESGGGLVQAGGSLRLSCAASGFIFYYYAMGWYRPAPGKERELVAAISGSGGSTYYADSVKGRFTISRDNAKNTVYLQMNSLKPEDTAVYYCNARRPGYYVYYFAYDYWGQGTQVTVSS” the “polyreactivity (PSR sort gate)” value was “high polyreactivity”.
With “QDQLVESGGGLVQAGGSLRLSCAASGFNFYKYAMGWYRQAPGKERELVAAITGRGGSTYYADSVKGRFTISRDNAKNTVYLRMNSLNPEDTAVYYCAASQRSGHPSYDYWGQGTQVTVSS” the “polyreactivity (PSR sort gate)” value was “high polyreactivity”.
For “QDQLVESGGGLVQAGGSLRLSCAASGFTFACYTMGWYRQAPGKERELVAGIDWSGGSTYYADSVKGRFTISRDNEKNTVYLEMNSLKPEDTAVYYCNAAVLYYVYPGYDYWGQGTQVTVSS”, the “polyreactivity (PSR sort gate)” value was “high polyreactivity”.
In the case of “QDQLVESGGGLVQAGGSLRLSCAASGFTFGENSMGWYRQAPGKERELVAANRYSGGSTYYADSVKGRFTISRDNAKNTVYLQMNSLKPEDTAVYYCNADTYALGPAVIPGDEYWGQGTQVTVSS”, the “polyreactivity (PSR sort gate)” value is reported as “low polyreactivity”.
In the case of “QDQLVESGGGLVQAGGSLRLSCAASGFTFTRNAMGWYRQAPGKEREFVAAISVGGGRTYYADSVKGRFTISRDNAKNTVYLQMNSLKPEDTAVYYCNAYQGWRYDYWGPGTQVTVSS”, the “polyreactivity (PSR sort gate)” value is reported as “high polyreactivity”.
In the case of “QDQLVESGGGLVQAGGSLRLSCAASGFTFYRYAMGWYRQAPGKERELVATIRNGGNTNYADSVKGRFTISRDNAKNTVYVQMNSLKPEDTAVYYCAKTVLAGMDWGQGTQVTVSS”, the “polyreactivity (PSR sort gate)” value is reported as “high polyreactivity”.
